Drawing on patent EP4725969A1 (Latticon (Suzhou) Biopharmaceuticals Co., Ltd., dated 2024), this text covers Kd, koff and kon for 34 molecules.

To fix the notation:
B1: 2126-Hu-H29 (antibody, IgG1, V domains shown)
VH: QVQLVQSGSELKKPGASVKVSCKASGYTFTDYSMHWVRQAPGQGLEWMGWINTITGEPTYADDFKGRFVFSLDTSVSTAYLQISSLKAEDTAVYFCVRVGRYDYAMDYWGQGTTVTVSS
VL: DIQMTQSPSSLSASVGDRVTITCKASQDVYTAVAWYQQKPGKAPKLLINSASYRYTGVPSRFSGSGSGTDFTLTISSLQPEDFATYYCQQHYSTPPTFGGGTKVEIK
notes: IgG1/Cκ
B2: 2126-Hu-H59 (antibody, IgG1, V domains shown)
VH: B1 VH with I54E, D103S
VL: B1 VL
notes: IgG1/Cκ
B3: 2126-Hu-H33 (antibody, IgG1, V domains shown)
VH: B1 VH with I54E, D63K
VL: B1 VL
notes: IgG1/Cκ
B4: 2126-Hu-H53 (antibody, IgG1, name in Kabat numbering, V domains shown)
VH: B1 VH with I54E, Y102N
VL: B1 VL
notes: IgG1/Cκ
B5: 2126-Hu-H51 (antibody, IgG1, name in Kabat numbering, V domains shown)
VH: B1 VH with I54E, Y102F
VL: B1 VL
notes: IgG1/Cκ
B6: 2126-Hu-H31 (antibody, IgG1, V domains shown)
VH: B1 VH with I54E, E57D
VL: B1 VL
notes: IgG1/Cκ
B7: 2126-Hu-H36 (antibody, IgG1, V domains shown)
VH: B1 VH with I54E, V69T
VL: B1 VL
notes: IgG1/Cκ
B8: 2126-Hu-H32 (antibody, IgG1, V domains shown)
VH: B1 VH with I54E, E57S
VL: B1 VL
notes: IgG1/Cκ
B9: 2126-Hu-H42 (antibody, IgG1, V domains shown)
VH: B1 VH with I54E, V76K
VL: B1 VL
notes: IgG1/Cκ
B10: 2126-Hu-H50 (antibody, IgG1, V domains shown)
VH: B1 VH with I54E, R101Y
VL: B1 VL
notes: IgG1/Cκ
B11: 2126-Hu-H54 (antibody, IgG1, V domains shown)
VH: B1 VH with I54E, Y102G
VL: B1 VL
notes: IgG1/Cκ
B12: 2126-Hu-H56 (antibody, IgG1, name in Kabat numbering, V domains shown)
VH: B1 VH with I54E, D103E
VL: B1 VL
notes: IgG1/Cκ
B13: 2126-Hu-L02 (antibody, IgG1, V domains shown)
VH: B1 VH with I54E
VL: B1 VL with K24R
notes: IgG1/Cκ
B14: 2126-Hu-H48 (antibody, IgG1, name in Kabat numbering, V domains shown)
VH: B1 VH with I54E, R101K
VL: B1 VL
notes: IgG1/Cκ
B15: 2126-Hu-H34 (antibody, IgG1, V domains shown)
VH: B1 VH with I54E, D63N
VL: B1 VL
notes: IgG1/Cκ
B16: 2126-Hu-H40 (antibody, IgG1, V domains shown)
VH: B1 VH with I54E, L72R
VL: B1 VL
notes: IgG1/Cκ
B17: 2126-Hu-H58 (antibody, IgG1, name in Kabat numbering, V domains shown)
VH: B1 VH with I54E, D103Q
VL: B1 VL
notes: IgG1/Cκ
B18: 2126-Hu-H39 (antibody, IgG1, V domains shown)
VH: B1 VH with I54E, L72V
VL: B1 VL
notes: IgG1/Cκ
B19: 2126-Hu-H55 (antibody, IgG1, name in Kabat numbering, V domains shown)
VH: B1 VH with I54E, D103A
VL: B1 VL
notes: IgG1/Cκ
B20: 2126-Hu-H57 (antibody, IgG1, name in Kabat numbering, V domains shown)
VH: B1 VH with I54E, D103G
VL: B1 VL
notes: IgG1/Cκ
B21: 2126-Hu-H49 (antibody, IgG1, name in Kabat numbering, V domains shown)
VH: B1 VH with I54E, R101N
VL: B1 VL
notes: IgG1/Cκ
B22: 2126-Hu-H30 (antibody, IgG1, name in Kabat numbering, V domains shown)
VH: B1 VH with I54E, E57N
VL: B1 VL
notes: IgG1/Cκ
B23: 2126-Hu-H45 (antibody, IgG1, V domains shown)
VH: B1 VH with I54E, I83M
VL: B1 VL
notes: IgG1/Cκ
B24: 2126-Hu-H52 (antibody, IgG1, name in Kabat numbering, V domains shown)
VH: B1 VH with I54E, Y102S
VL: B1 VL
notes: IgG1/Cκ
B25: 2126-Hu-H44 (antibody, IgG1, V domains shown)
VH: B1 VH with I54E, I83L
VL: B1 VL
notes: IgG1/Cκ
B26: 2126-Hu-H61 (antibody, IgG1, V domains shown)
VH: B1 VH with I54E, M106F
VL: B1 VL
notes: IgG1/Cκ
B27: 2126-Hu-H35 (antibody, IgG1, V domains shown)
VH: B1 VH with I54E, F64V
VL: B1 VL
notes: IgG1/Cκ
B28: 2126-Hu-H37 (antibody, IgG1, V domains shown)
VH: B1 VH with I54E, V69S
VL: B1 VL
notes: IgG1/Cκ
B29: 2126-Hu-H60 (antibody, IgG1, name in Kabat numbering, V domains shown)
VH: B1 VH with I54E, D103Y
VL: B1 VL
notes: IgG1/Cκ
B30: 2126-Hu-H46 (antibody, IgG1, V domains shown)
VH: B1 VH with I54E, F95Y
VL: B1 VL
notes: IgG1/Cκ
B31: 2126-Hu-L01 (antibody, IgG1, V domains shown)
VH: B1 VH with I54E
VL: B1 VL with D28S
notes: IgG1/Cκ
B32: 2126-Hu-H47 (antibody, IgG1, name in Kabat numbering, V domains shown)
VH: B1 VH with I54E, R101F
VL: B1 VL
notes: IgG1/Cκ
B33: 2126-Hu-H43 (antibody, IgG1, V domains shown)
VH: B1 VH with I54E, V76T
VL: B1 VL
notes: IgG1/Cκ
B34: 2126-Hu-H38 (antibody, IgG1, V domains shown)
VH: B1 VH with I54E, F70I
VL: B1 VL
notes: IgG1/Cκ

Substitutions are numbered along the chain they refer to.

This experiment deals with T1, recombinant human HER2 extracellular domain protein (human, UniProt P04626 23-652).
T1 construct: range 23-652; Range is printed for the immunogen/panning protein; also called ErbB2; recombinant HER2 protein
Kind of experiment: BLI, Protein A capture. In general terms: BLI is a label-free optical method that tracks binding on a fibre tip over time.
Regarding B1, the Kd (usually the equilibrium constant for the complex coming apart) was 2.61 nM, the koff (commonly the first-order rate constant of dissociation) worked out at 0.000246 s⁻¹ and the kon (commonly the second-order rate constant of association) is 94300 M⁻¹ s⁻¹.
Regarding B2, the Kd was determined as 25.3 nM, the off-rate constant (koff) is 0.00287 s⁻¹ and the association rate constant (kon) was determined as 113000 M⁻¹ s⁻¹.
B3: the Kd was 2.83 nM, the off-rate (koff) was 0.00031 s⁻¹ and the kon amounted to 109000 M⁻¹ s⁻¹.
As for B4, the dissociation constant Kd is 46.9 nM, the dissociation rate constant (koff) is 0.00475 s⁻¹ and the kon was 101000 M⁻¹ s⁻¹.
Taken in the same sequence, the figures for B5 were 23.8 nM, 0.00244 s⁻¹ and 103000 M⁻¹ s⁻¹.
For the molecule B6, the Kd was 8.81 nM, the koff was 0.000942 s⁻¹ and the kon amounted to 107000 M⁻¹ s⁻¹.
Taken in the same sequence, the figures for B7 were 5.3 nM, 0.000558 s⁻¹ and 105000 M⁻¹ s⁻¹.
Taken in the same sequence, the figures for B8 were 8.96 nM, 0.000998 s⁻¹ and 111000 M⁻¹ s⁻¹.
Taken in the same sequence, the figures for B9 were 5.11 nM, 0.000546 s⁻¹ and 107000 M⁻¹ s⁻¹.
B10: the Kd was 8 nM, the koff is 0.000902 s⁻¹ and the kon worked out at 113000 M⁻¹ s⁻¹.
For B11, the dissociation constant Kd was determined as 7.96 nM, the dissociation rate constant (koff) was determined as 0.000936 s⁻¹ and the kon stood at 118000 M⁻¹ s⁻¹.
Taken in the same sequence, the figures for B12 were 36.2 nM, 0.00476 s⁻¹ and 131000 M⁻¹ s⁻¹.
Take B13: the dissociation constant Kd was determined as 5.58 nM, the off-rate constant (koff) worked out at 0.000551 s⁻¹ and the kon is 98700 M⁻¹ s⁻¹.
As to B14, the Kd worked out at 34.1 nM, the koff was 0.00392 s⁻¹ and the association rate constant (kon) amounted to 115000 M⁻¹ s⁻¹.
For the molecule B15, the equilibrium dissociation constant (Kd) was determined as 4.31 nM, the koff stood at 0.000454 s⁻¹ and the kon came to 105000 M⁻¹ s⁻¹.
Taken in the same sequence, the figures for B16 were 1.92 nM, 0.0002 s⁻¹ and 104000 M⁻¹ s⁻¹.
Taken in the same sequence, the figures for B17 were 26.3 nM, 0.00409 s⁻¹ and 155000 M⁻¹ s⁻¹.
On to B18, for which the Kd is 4.87 nM, the koff is 0.000509 s⁻¹ and the on-rate constant (kon) worked out at 105000 M⁻¹ s⁻¹.
Taken in the same sequence, the figures for B19 were 33.7 nM, 0.00452 s⁻¹ and 134000 M⁻¹ s⁻¹.
In the case of B20, the Kd turned out to be 14.5 nM, the koff amounted to 0.00217 s⁻¹ and the kon came to 150000 M⁻¹ s⁻¹.
With B21, the equilibrium dissociation constant (Kd) stood at 35.9 nM, the koff came out at 0.00533 s⁻¹ and the kon was found to be 149000 M⁻¹ s⁻¹.
With B22, the Kd was 13.1 nM, the koff amounted to 0.0015 s⁻¹ and the association rate constant (kon) turned out to be 115000 M⁻¹ s⁻¹.
Taken in the same sequence, the figures for B23 were 5.76 nM, 0.000598 s⁻¹ and 104000 M⁻¹ s⁻¹.
Taken in the same sequence, the figures for B24 were 19.3 nM, 0.00292 s⁻¹ and 152000 M⁻¹ s⁻¹.
Taken in the same sequence, the figures for B25 were 5.3 nM, 0.000562 s⁻¹ and 106000 M⁻¹ s⁻¹.
Consider B26, for which the dissociation constant Kd was determined as 22 nM, the koff amounted to 0.00201 s⁻¹ and the on-rate constant (kon) came to 91400 M⁻¹ s⁻¹.
With B27, the dissociation constant Kd was 5.87 nM, the off-rate constant (koff) stood at 0.000603 s⁻¹ and the on-rate (kon) is 103000 M⁻¹ s⁻¹.
Taken in the same sequence, the figures for B28 were 5.31 nM, 0.000545 s⁻¹ and 103000 M⁻¹ s⁻¹.
Taken in the same sequence, the figures for B29 were 23.8 nM, 0.00361 s⁻¹ and 152000 M⁻¹ s⁻¹.
As to B30, the Kd worked out at 5.7 nM, the off-rate (koff) came out at 0.000597 s⁻¹ and the kon is 105000 M⁻¹ s⁻¹.
For B31, the Kd is 17.5 nM, the koff turned out to be 0.00195 s⁻¹ and the kon turned out to be 112000 M⁻¹ s⁻¹.
In the case of B32, the equilibrium dissociation constant (Kd) is 17.8 nM, the koff is 0.00362 s⁻¹ and the association rate constant (kon) was determined as 204000 M⁻¹ s⁻¹.
Turning to B33, the Kd is 7.2 nM and the kon turned out to be 107000 M⁻¹ s⁻¹.
With B34, the dissociation constant (Kd) worked out at 8.4 nM, the koff was determined as 0.000874 s⁻¹ and the kon was 104000 M⁻¹ s⁻¹.
